# Tested on: tau
substance,measurement,value
Gleevec-resistant abl1 (T3611 form),"tyrosine phosphorylation of tau in the presence of Gleevec (western blot, ELISA)","In the presence of Gleevec, both forms could phosphorylate tau"
